Test results: patent US20220185898A1 (Alector, published 2022)
No end group written: not given here. *: point of attachment. Biotin = O=C1N[C@H]2[C@H](CS[C@H]2CCCCC(=O)*)N1

How the values were obtained:
[1] = target: T1, human Sortilin expressed on 293 / HEK293T cells (human, UniProt Q99523 78-830); assay: FACS, HEK293T + hSort
T1 construct: full-length recombinant human Sortilin; also called hSort; SORT1
Experimental: (§1) Antibodies were diluted in FACS buffer (PBS+2% FBS+0.01% NaAzide). After incubation on ice for 1 h, cells were washed three times in FACS buffer and incubated with anti-human PE conjugated secondary antibody (BD Biosciences, 1:100 dilution) for 30 min on ice. Then cells were washed twice in 200 ul FACS buffer, and subsequently analyzed on a FACS Canto or iQE FACS screening instrument (Intellicyt Corp).

[2] = target: T2, mouse Sortilin expressed on 293 / HEK293T cells (mouse, UniProt Q6PHU5 74-825); assay: FACS, HEK293T + msSort
T2 construct: full-length recombinant mouse Sortilin; also called mSort; msSort
Experimental: as §1

[3] = target: T3, biotinylated mouse Sortilin monomer (mouse, UniProt Q6PHU5 74-754, limits assumed, biotinylated); assay: MSD-SET, Fab
T3 construct: also called Bt-msSort
Experimental: (§2) Antibodies (20 nM in PBS) were coated onto standard bind MSD-ECL plates overnight at 4° C. or at room temperature for 30 min. Plates were then blocked with 1% BSA for 30 min with shaking at 700 rpm, followed by three washes with wash buffer (PB SF+0.05% Tween 20). SET samples were applied and incubated on the plates for 150 s with shaking at 700 rpm followed by one wash. Antigen captured on a plate was detected with 250 ng/ml sulfotag-labeled streptavidin in PBSF by incubation on the plate for 3 min. The plates were washed three times with wash buffer and then read on the MSD Sector Imager 2400 instrument using 1× Read Buffer T with surfactant. The percent free antigen was plotted as a function of titrated antibody in Prism and fit to a quadratic equation to extract the KD. To improve throughput, liquid handling robots were used throughout MSD-SET experiments, including SET sample preparation.

[4] = target: T4, biotinylated human Sortilin monomer (human, UniProt Q99523 78-755, limits assumed, biotinylated (Sulfo-NHS-biotin)); assay: MSD-SET, Fab
T4 construct: monomer cut from the Fc fusion with IdeS; used unbiotinylated in solution in some formats; also called Bt-hSort; b-H Sort
Experimental: as §2

[5] = target: T3, biotinylated mouse Sortilin monomer; assay: ForteBio, Fab
Experimental: (§3) The affinity of the anti-Sortilin antibodies was determined by measuring their KD by ForteBio and MSD. […] Briefly, ForteBio affinity measurements were performed by loading immunoglobulins (IgGs) on-line onto AHQ sensors. Sensors were equilibrated off-line in assay buffer for 30 min and then monitored on-line for 60 seconds for baseline establishment. For avid binding measurement, sensors with loaded IgGs were exposed to 100 nM antigen (human or mouse Sortilin Fc fusion) for 3 min, afterwards they were transferred to assay buffer for 3 min for off-rate measurement. […] Monovalent binding measurements were obtained by loading human or mouse Sortilin Fc fusion antigens to AHQ sensor and followed by exposure to −100 nM Sortilin antibody Fab. […] Kinetics data were fit using a 1:1 binding model in the data analysis software provided by ForteBio.

[6] = target: T4, biotinylated human Sortilin monomer; assay: ForteBio, Fab
Experimental: as §3

[7] = target: T5, mouse Sortilin Fc fusion protein (mouse; human, UniProt Q6PHU5 74-754); assay: ForteBio, avid;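 note: whole IgG captured on AHQ sensors, then contacted with Sortilin Fc fusion antigen at 100 nM, followed by an off-rate phase in buffer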
T5 construct: whole entry named; also called mSort-Fc

[8] = target: T6, human Sortilin Fc fusion protein (human, UniProt Q99523 78-755); assay: ForteBio, avid;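 note: whole IgG captured on AHQ sensors, then contacted with Sortilin Fc fusion antigen at 100 nM, followed by an off-rate phase in buffer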
T6 construct: whole entry named; also called hSort-Fc

[9] = target: T2, mouse Sortilin expressed on 293 / …; assay: cell binding, HEK293T, FACS
[10] = target: T1, human Sortilin expressed on 293 / …; assay: cell binding, HEK293T, FACS
[11] = target: T2, mouse Sortilin expressed on 293 / …; assay: FACS, 293 cells;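 note: antibodies at 10 µg/ml bound to cells for 1 h on ice, detected with PE-labelled anti-human secondary antibody by flow cytometry, reported as mean fluorescence intensity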
[12] = target: T1, human Sortilin expressed on 293 / …; assay: FACS, 293 cells;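 note: antibodies at 10 µg/ml bound to cells for 1 h on ice, detected with PE-labelled anti-human secondary antibody by flow cytometry, reported as mean fluorescence intensity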
[13] = target: T4, biotinylated human Sortilin monomer; assay: ForteBio, peptide format: human Sortilin monomer (100 nM) on biotinylated PGRN peptide on SA sensors
Experimental: SA sensors were soaked in PBS for 10 min prior to analysis. […] The data was prepared for analysis with ForteBio Data Analysis Software version 8.1.0.36 as follows. The data was y-axis aligned and inter-step corrected to the beginning of the Sortilin capture step and then cropped to show only the Sortilin capture and antibody interaction steps.

| Binder | Kd [1] [nM] | Kd [2] [nM] | Kd [4] [nM] | Kd [5] [nM] | Kd [6] [nM] | also measured |
| --- | --- | --- | --- | --- | --- | --- |
| S-15-3 (antibody, V domains shown, IgG) VH: QVQLVQSGAEVKKPGASVKVSCKASGYTFTSTYMSWVRQAPGQGLEWMGIINPYGGSTSYAQKFQGRVTMTRDTSTSTVYMELSSLRSEDTAVYYCARDPSGIAAAGPASRYYYGMDVWGQGTTVTVSS VL: EIVMTQSPATLSVSPGERATLSCRASQSVSSNLAWYQQKPGQAPRLLIYGASTRATGIPARFSGSGSGTEFTLTISSLQSEDFAVYYCQQARLGPWTFGGGTKVEIK | 5.25 | 17.9 |  |  |  |  |
| S-15-3 Fab (Fab, V domains shown, Fab by papain digestion) VH: QVQLVQSGAEVKKPGASVKVSCKASGYTFTSTYMSWVRQAPGQGLEWMGIINPYGGSTSYAQKFQGRVTMTRDTSTSTVYMELSSLRSEDTAVYYCARDPSGIAAAGPASRYYYGMDVWGQGTTVTVSS VL: EIVMTQSPATLSVSPGERATLSCRASQSVSSNLAWYQQKPGQAPRLLIYGASTRATGIPARFSGSGSGTEFTLTISSLQSEDFAVYYCQQARLGPWTFGGGTKVEIK |  |  | 0.26 | 0.769 | 0.943 | Kd [3]: 0.11 nM |
| S-15 (antibody, V domains shown, IgG) VH: QVQLVQSGAEVKKPGASVKVSCKASGYTFTSYYMSWVRQAPGQGLEWMGIINPSGGSTSYAQKFQGRVTMTRDTSTSTVYMELSSLRSEDTAVYYCARDPSGIAAAGPASRYYYGMDVWGQGTTVTVSS VL: EIVMTQSPATLSVSPGERATLSCRASQSVSSNLAWYQQKPGQAPRLLIYGASTRATGIPARFSGSGSGTEFTLTISSLQSEDFAVYYCQQARLGPWTFGGGTKVEIK |  |  |  |  |  | Kd [7]: 1.4 nM; Kd [8]: 2.3 nM; Kd [9]: 6.4 nM; Kd [10]: 3.3 nM; MFI [11]: 17600; MFI [12]: 8740 |
| S-15-14 (antibody, V domains shown, IgG) VH: QVQLVQSGAEVKKPGASVKVSCKASGYTFTSQYMSWVRQAPGQGLEWMGIINPYGGSTSYAQKFQGRVTMTRDTSTSTVYMELSSLRSEDTAVYYCARDPSGIAAAGPASRYYYGMDVWGQGTTVTVSS VL: EIVMTQSPATLSVSPGERATLSCRASQSVSSNLAWYQQKPGQAPRLLIYGASTRATGIPARFSGSGSGTEFTLTISSLQSEDFAVYYCQQARLGPWTFGGGTKVEIK | 5.25 | 19.4 |  |  |  |  |
| S-2-1 (antibody, V domains shown, IgG) VH: QVQLVQSGAEVKKPGASVKVSCKASGYTFGAYYMHWVRQAPGQGLEWMGWINPNSGFTRYAQKFQGRVTMTRDTSISTAYMELSRLRSDDTAVYYCARGKRSSGWYEGYGMDVWGQGTTVTVSS VL: DIQMTQSPSSLSASVGDRVTITCRASQSISSYLNWYQQKPGKAPKLLIYAASSLQSGVPSRFSGSGSGTDFTLTISSLQPEDFATYYCQQSDVSPITFGGGTKVEIK | 0.691 | 2.65 |  |  |  |  |
| S-2 (antibody, V domains shown, IgG; also called S-02) VH: not shown VL: DIQMTQSPSSLSASVGDRVTITCRASQSISSYLNWYQQKPGKAPKLLIYAASSLQSGVPSRFSGSGSGTDFTLTISSLQPEDFATYYCQQSDVSPITFGGGTKVEIK |  |  |  |  |  | Kd [7]: 1.07 nM; Kd [8]: 0.517 nM; Kd [9]: 6.6 nM; Kd [10]: 1.1 nM; MFI [11]: 22400; MFI [12]: 8430 |
| S-2-11 Fab (Fab, V domains shown, Fab by papain digestion) VH: QVQLVQSGAEVKKPGASVKVSCKASGYTFLAYYMHWVRQAPGQGLEWMGWINPSWGSTSYAQKFQGRVTMTRDTSISTAYMELSRLRSDDTAVYYCARGKRSSGWYEGYGMDVWGQGTTVTVSS VL: DIQMTQSPSSLSASVGDRVTITCRASQSISSYLNWYQQKPGKAPKLLIYAASSLQSGVPSRFSGSGSGTDFTLTISSLQPEDFATYYCQQSDVSPITFGGGTKVEIK |  |  | 0.011 | 7.59 | 0.261 |  |
| S-2-11 (antibody, V domains shown, IgG) VH: QVQLVQSGAEVKKPGASVKVSCKASGYTFLAYYMHWVRQAPGQGLEWMGWINPSWGSTSYAQKFQGRVTMTRDTSISTAYMELSRLRSDDTAVYYCARGKRSSGWYEGYGMDVWGQGTTVTVSS VL: DIQMTQSPSSLSASVGDRVTITCRASQSISSYLNWYQQKPGKAPKLLIYAASSLQSGVPSRFSGSGSGTDFTLTISSLQPEDFATYYCQQSDVSPITFGGGTKVEIK | 0.377 | 1.54 |  |  |  |  |
| S-22 (antibody, V domains shown, IgG) VH: QVQLVQSGAEVKKPGSSVKVSCKASGGTFSSYAISWVRQAPGQGLEWMGGIIPIFGTASYAQKFQGRVTITADESTSTAYMELSSLRSEDTAVYYCARQGRKTGYYYYYGMDVWGQGTTVTVSS VL: DIQMTQSPSTLSASVGDRVTITCRASQSISSWLAWYQQKPGKAPKLLIYKASSLESGVPSRFSGSGSGTEFTLTISSLQPDDFATYYCQQADGHITFGGGTKVEIK |  |  |  |  |  | Kd [7]: 1.12 nM; Kd [8]: 0.99 nM; Kd [9]: 5 nM; Kd [10]: 2.4 nM; MFI [11]: 23200; MFI [12]: 8940 |
| S-22-3 Fab (Fab, V domains shown, Fab by papain digestion) VH: QVQLVQSGAEVKKPGSSVKVSCKASGGTFRSYAISWVRQAPGQGLEWMGGIIPGFGTAWYAQKFQGRVTITADESTSTAYMELSSLRSEDTAVYYCARQGRKTGYYYYYGMDVWGQGTTVTVSS VL: DIQMTQSPSTLSASVGDRVTITCRASQSISSWLAWYQQKPGKAPKLLIYKASSLESGVPSRFSGSGSGTEFTLTISSLQPDDFATYYCQQADGHITFGGGTKVEIK |  |  | 0.097 | 1.43 | 0.698 | Kd [3]: 1.2 nM |
| Biotin-TKCLRREAPRWDAPLRDPALRQLL (also called hPGRN peptide) [biotinylated Progranulin C-terminal peptide] |  |  |  |  |  | binding result [13]: binds |

The next lines start with results.

| Kd [1] [nM] | Kd [2] [nM] | Kd [4] [nM] | Kd [5] [nM] | Kd [6] [nM] | Binder | also measured |
| --- | --- | --- | --- | --- | --- | --- |
|  |  | 0.19 | 0.758 | 1.04 | S-15-14 Fab (Fab, V domains shown, Fab by papain digestion) VH: QVQLVQSGAEVKKPGASVKVSCKASGYTFTSQYMSWVRQAPGQGLEWMGIINPYGGSTSYAQKFQGRVTMTRDTSTSTVYMELSSLRSEDTAVYYCARDPSGIAAAGPASRYYYGMDVWGQGTTVTVSS VL: EIVMTQSPATLSVSPGERATLSCRASQSVSSNLAWYQQKPGQAPRLLIYGASTRATGIPARFSGSGSGTEFTLTISSLQSEDFAVYYCQQARLGPWTFGGGTKVEIK | Kd [3]: 0.1 nM |
|  |  | 0.098 | 0.751 | 0.508 | S-22-7 Fab (Fab, V domains shown, Fab by papain digestion) VH: QVQLVQSGAEVKKPGSSVKVSCKASGGTFSSYAISWVRQAPGQGLEWMGGIIPGFGRANYAQKFQGRVTITADESTSTAYMELSSLRSEDTAVYYCARQGRKTGYYYYYGMDVWGQGTTVTVSS VL: DIQMTQSPSTLSASVGDRVTITCRASQSISSWLAWYQQKPGKAPKLLIYKASSLESGVPSRFSGSGSGTEFTLTISSLQPDDFATYYCQQADGHITFGGGTKVEIK | Kd [3]: 0.57 nM |
| 2.65 | 4.78 |  |  |  | S-22-7 (antibody, V domains shown, IgG) VH: QVQLVQSGAEVKKPGSSVKVSCKASGGTFSSYAISWVRQAPGQGLEWMGGIIPGFGRANYAQKFQGRVTITADESTSTAYMELSSLRSEDTAVYYCARQGRKTGYYYYYGMDVWGQGTTVTVSS VL: DIQMTQSPSTLSASVGDRVTITCRASQSISSWLAWYQQKPGKAPKLLIYKASSLESGVPSRFSGSGSGTEFTLTISSLQPDDFATYYCQQADGHITFGGGTKVEIK |  |
| 0.81 | 5.12 |  |  |  | S-22-9 (antibody, V domains shown, IgG) VH: QVQLVQSGAEVKKPGSSVKVSCKASGGTFRNYAISWVRQAPGQGLEWMGGIIPIGGWANYAQKFQGRVTITADESTSTAYMELSSLRSEDTAVYYCARQGRKTGYYYYYGMDVWGQGTTVTVSS VL: DIQMTQSPSTLSASVGDRVTITCRASQSISSWLAWYQQKPGKAPKLLIYKASSLESGVPSRFSGSGSGTEFTLTISSLQPDDFATYYCQQADGHITFGGGTKVEIK |  |
| 1.08 | 3.63 |  |  |  | S-22-3 (antibody, V domains shown, IgG) VH: QVQLVQSGAEVKKPGSSVKVSCKASGGTFRSYAISWVRQAPGQGLEWMGGIIPGFGTAWYAQKFQGRVTITADESTSTAYMELSSLRSEDTAVYYCARQGRKTGYYYYYGMDVWGQGTTVTVSS VL: DIQMTQSPSTLSASVGDRVTITCRASQSISSWLAWYQQKPGKAPKLLIYKASSLESGVPSRFSGSGSGTEFTLTISSLQPDDFATYYCQQADGHITFGGGTKVEIK |  |
|  |  | 0.0048 | 3.29 | 0.575 | S-22-9 Fab (Fab, V domains shown, Fab by papain digestion) VH: QVQLVQSGAEVKKPGSSVKVSCKASGGTFRNYAISWVRQAPGQGLEWMGGIIPIGGWANYAQKFQGRVTITADESTSTAYMELSSLRSEDTAVYYCARQGRKTGYYYYYGMDVWGQGTTVTVSS VL: DIQMTQSPSTLSASVGDRVTITCRASQSISSWLAWYQQKPGKAPKLLIYKASSLESGVPSRFSGSGSGTEFTLTISSLQPDDFATYYCQQADGHITFGGGTKVEIK |  |
